Reference: US9409976B2, “CDIM binding proteins and uses thereof” (IGM BIOSCIENCES, INC., priority 2012, dated 2016)
“Also recorded” adds a separate entry of the source.

Tests used:
[1] = ELISA binding to non-CDIM antigen heparan sulfate; conditions: maximal reaction (OD450 nm), IgM at 10 μg/ml
Protocol: (§1) This example describes the binding specificity of the CDIM binding proteins for antigens other than CDIM. The antibodies were purified by affinity chromatography. Antibodies were tested across a broad dose range against a panel of antigens available in commercially available ELISA kits. ELISA plates pre-coated with the antigens, ssDNA (Inova Diagnostics, Inc, San Diego, Calif.), dsDNA (Inova Diagnostics, Inc., San Diego, Calif.), cardiolipin (Inova Diagnostics, Inc., San Diego, Calif.) MDA-LDL (malondialdehyde modified low density lipoprotein) (Rocky Mountain Diagnostics, Colorado Springs, Colo.) were purchased from various vendors. Lipid A (Avanti Polar Lipids, Alabaster, Ala.) was purchased as an antigen, dissolved in ethanol and diluted in 100 mM Na carbonate buffer at pH 9.5 prior to coating onto ELISA plates. Anti-CDIM antibodies were used at concentrations indicated and ELISA was performed according to manufacturers recommendations. Briefly, plates were blocked with BSA-milk powder for 1 hour, followed by washing. The disclosed antibodies were added at the concentrations indicated. The antibodies were allowed to bind for 1.5 hours at room temperature followed by a wash step. The HRP-conjugated anti-human IgM antibody was added, followed by substrate addition. Results were quantified using absorbance at 450 nm (Bio-Tek Synergy HT). […]

ss DNA = experiment: ELISA binding to non-CDIM antigen ssDNA; conditions: maximal reaction (OD450 nm), IgM at 10 μg/ml
Protocol: as §1

[2] = ELISA binding to non-CDIM antigen LPS; conditions: maximal reaction (OD450 nm), IgM at 10 μg/ml
Protocol: as §1

[3] = ELISA binding to non-CDIM antigen cardiolipin; conditions: maximal reaction (OD450 nm), IgM at 10 μg/ml
Protocol: as §1

[4] = ELISA binding to panel of antigens other than CDIM (FIGS. 8 and 9); conditions: broad dose range, absorbance at 450 nm, listed as MAb 216
Description: FIG. 8, panels A-E depict ELISA based binding data that is representative of the CDIM binding proteins to antigens other than CDIM. Results using the antigens single stranded DNA (ssDNA), double stranded DNA (dsDNA), lipid A, cardiolipin, and maleonaldehyde LDL (MDA-LDL) are shown in panels A-E, respectively.
FIG. 9, panels A-F depict ELISA based binding data that is representative of the CDIM binding proteins to antigens other than CDIM. Results using the antigens single stranded DNA (ssDNA), double stranded DNA (dsDNA), lipopolysaccharide, cardiolipin, chondoitrin and heparan, are shown in panels A-F, respectively.
This example describes the binding specificity of the CDIM binding proteins for antigens other than CDIM. The antibodies were purified by affinity chromatography. Antibodies were tested across a broad dose range against a panel of antigens available in commercially available ELISA kits. ELISA plates pre-coated with the antigens, ssDNA (Inova Diagnostics, Inc, San Diego, Calif.), dsDNA (Inova Diagnostics, Inc., San Diego, Calif.), cardiolipin (Inova Diagnostics, Inc., San Diego, Calif.) MDA-LDL (malondialdehyde modified low density lipoprotein) (Rocky Mountain Diagnostics, Colorado Springs, Colo.) were purchased from various vendors. […] Results were quantified using absorbance at 450 nm (Bio-Tek Synergy HT).

ds DNA = experiment: ELISA binding to non-CDIM antigen dsDNA; conditions: maximal reaction (OD450 nm), IgM at 10 μg/ml
Protocol: as §1

Human pro-B NALM-6 cells = experiment: Human complement dependent cytotoxicity (CDC) assay, CCK8; assay type: cell-based; conditions: Nalm-6 cells with human complement, 24 hours, supernatant containing expressed antibody
Description: “Complement-dependent cytotoxicity” or “CDC” refers to the lysis of a target cell in the presence of complement. Activation of the classical complement pathway is initiated by the binding of the first component of the complement system (CIq) to antibodies, which are bound to their cognate antigen. To assess complement activation, a CDC assay, as described in Hinton et al, J. Immunol. 2006 Jan. 1; 176(1):346-56, may be performed. Briefly, this example describes how the cytotoxicity of the CDIM binding proteins was investigated. Human pro-B NALM-6 cells (50,000) were plated in a 96-well flat bottom microtiter plate. […] After 24 hours, a colorimetric substrate CCK8 was added for 3 hours and then the optical density (OD) was measured at 450 nm wavelength on a Microtiter Plate Reader. Quantification of the increase in OD is directly proportional to viable proliferating NALM-6 cells. […] The IC50 was calculated for each antibody using the same approach as described above.
TABLE 2 summarizes the data shown in FIG. 6 and FIGS. 7A-7F for the CDIM binding proteins comprising variable heavy chains H1, H2, H3, H4, H5, H6, H7, H9, H10, H11, H12, H13, H14, H15, H16, H17, H18, H19, H20, and H21, respectively. The ELISA value refers to the concentration of IgM determined in the conditioned media following transient transfection of IgM heavy and light chains. […]

[5] = ELISA binding to non-CDIM antigen chondroitin sulfate; conditions: maximal reaction (OD450 nm), IgM at 10 μg/ml

B1: hm216: naturally occurring human monoclonal IgM CDIM binding antibody (SEQ ID NO: 108), used as experimental reference antibody (protein)
chain: QVQLQQWGAGLLKPSETLSLTCAVYGGSFSGYYWSWIRQPPGKGLEWIGEINHSGSTNYNPSLKSRVTISVDTSKNQFSLKLSSVTAADTAVYYCARARTARGSSIFDYWGQGTLVTVSSGSASAPTLFPLVSCENSPSDTSSVAVGCLAQDFLPDSITFSWKYKNNSDISSTRGFPSVLRGGKYAATSQVLLPSKDVMQGTDEHVVCKVQHPNGNKEKNVPLPVIAELPPKVSVFVPPRDGFFGNPRKSKLICQATGFSPRQIQVSWLREGKQVGSGVTTDQVQAEAKESGPTTYKVTSTLTIKESDWLSQSMFTCRVDHRGLTFQQNASSMCVPDQDTAIRVFAIPPSFASIFLTKSTKLTCLVTDLTTYDSVTISWTRQNGEAVKTHTNISESHPNATFSAVGEASICEDDWNSGERFTCTVTHTDLPSPLKQTISRPKGVALHRPDVYLLPPAREQLNLRESATITCLVTGFSPADVFVQWMQRGQPLSPEKYVTSAPMPEPQAPGRYFAHSILTVSEEEWNTGETYTCVVAHEALPNRVTERTVDKSTGKPTLYNVSLVMSDTAGTCY
- Heparan Sulfate relative reactivity [1]: ++++ (The (+), (++), (+++) and (++++) scores are given for maximal ELISA values of 0.3 to 1, 1 to 2, 2 to 3 and above 3, respectively)
- ss DNA relative reactivity (ss DNA): ++++ (The (+), (++), (+++) and (++++) scores are given for maximal ELISA values of 0.3 to 1, 1 to 2, 2 to 3 and above 3, respectively)
- LPS relative reactivity [2]: ++++ (The (+), (++), (+++) and (++++) scores are given for maximal ELISA values of 0.3 to 1, 1 to 2, 2 to 3 and above 3, respectively)
- Cardiolipin relative reactivity [3]: +++ (The (+), (++), (+++) and (++++) scores are given for maximal ELISA values of 0.3 to 1, 1 to 2, 2 to 3 and above 3, respectively)
- Binding to antigens other than CDIM [4]: binds to all the antigens tested; also recorded: binds to all of the antigens across a broad dose range
- ds DNA relative reactivity (ds DNA): ++++ (The (+), (++), (+++) and (++++) scores are given for maximal ELISA values of 0.3 to 1, 1 to 2, 2 to 3 and above 3, respectively)
- Cytotoxicity IC50 (Human pro-B NALM-6 cells): 1.762 µg/mL
- Chondroitin Sulfate relative reactivity [5]: ++++ (The (+), (++), (+++) and (++++) scores are given for maximal ELISA values of 0.3 to 1, 1 to 2, 2 to 3 and above 3, respectively)
